The values that follow come from publication PMC6125206 (Structure (London, England : 1993), 2018).

This data set deals with the molecule itself. Description: AUC.

B1: E. coli cyclopropane fatty acid (CFA) synthase, wild type (from His6-TEV-CFA synthase) (enzyme, UniProt P0A9H7 1-382, looked up)
chain: MSSSCIEEVSVPDDNWYRIANELLSRAGIAINGSAPADIRVKNPDFFKRVLQEGSLGLGESYMDGWWECDRLDMFFSKVLRAGLENQLPHHFKDTLRIAGARLFNLQSKKRAWIVGKEHYDLGNDLFSRMLDPFMQYSCAYWKDADNLESAQQAKLKMICEKLQLKPGMRVLDIGCGWGGLAHYMASNYDVSVVGVTISAEQQKMAQERCEGLDVTILLQDYRDLNDQFDRIVSVGMFEHVGPKNYDTYFAVVDRNLKPEGIFLLHTIGSKKTDLNVDPWINKYIFPNGCLPSVRQIAQSSEPHFVMEDWHNFGADYDTTLMAWYERFLAAWPEIADNYSERFKRMFTYYLNACAGAFRARDIQLWQVVFSRGVENGLRVAR
Usually stoichiometry N stands for a count of units in the complex or per binding partner. Regarding B1, the “stoichiometry N” value was determined as 2.
